Data: article PMC9278858

Biological target: Rpc160-HTP (largest subunit of RNAPIII, C-terminally His6–TEV–Protein A tagged) (S. cerevisiae) (UniProt P04051)
Experiment: affinity purification with mass spectrometry; Rpc160-HTP as bait; as a3 but lysate treated with RNase A (20 μg/ml, 20 min at 25°C); label-free quantitative MS

Sequence of UniProt P04051 (P04051 whole entry): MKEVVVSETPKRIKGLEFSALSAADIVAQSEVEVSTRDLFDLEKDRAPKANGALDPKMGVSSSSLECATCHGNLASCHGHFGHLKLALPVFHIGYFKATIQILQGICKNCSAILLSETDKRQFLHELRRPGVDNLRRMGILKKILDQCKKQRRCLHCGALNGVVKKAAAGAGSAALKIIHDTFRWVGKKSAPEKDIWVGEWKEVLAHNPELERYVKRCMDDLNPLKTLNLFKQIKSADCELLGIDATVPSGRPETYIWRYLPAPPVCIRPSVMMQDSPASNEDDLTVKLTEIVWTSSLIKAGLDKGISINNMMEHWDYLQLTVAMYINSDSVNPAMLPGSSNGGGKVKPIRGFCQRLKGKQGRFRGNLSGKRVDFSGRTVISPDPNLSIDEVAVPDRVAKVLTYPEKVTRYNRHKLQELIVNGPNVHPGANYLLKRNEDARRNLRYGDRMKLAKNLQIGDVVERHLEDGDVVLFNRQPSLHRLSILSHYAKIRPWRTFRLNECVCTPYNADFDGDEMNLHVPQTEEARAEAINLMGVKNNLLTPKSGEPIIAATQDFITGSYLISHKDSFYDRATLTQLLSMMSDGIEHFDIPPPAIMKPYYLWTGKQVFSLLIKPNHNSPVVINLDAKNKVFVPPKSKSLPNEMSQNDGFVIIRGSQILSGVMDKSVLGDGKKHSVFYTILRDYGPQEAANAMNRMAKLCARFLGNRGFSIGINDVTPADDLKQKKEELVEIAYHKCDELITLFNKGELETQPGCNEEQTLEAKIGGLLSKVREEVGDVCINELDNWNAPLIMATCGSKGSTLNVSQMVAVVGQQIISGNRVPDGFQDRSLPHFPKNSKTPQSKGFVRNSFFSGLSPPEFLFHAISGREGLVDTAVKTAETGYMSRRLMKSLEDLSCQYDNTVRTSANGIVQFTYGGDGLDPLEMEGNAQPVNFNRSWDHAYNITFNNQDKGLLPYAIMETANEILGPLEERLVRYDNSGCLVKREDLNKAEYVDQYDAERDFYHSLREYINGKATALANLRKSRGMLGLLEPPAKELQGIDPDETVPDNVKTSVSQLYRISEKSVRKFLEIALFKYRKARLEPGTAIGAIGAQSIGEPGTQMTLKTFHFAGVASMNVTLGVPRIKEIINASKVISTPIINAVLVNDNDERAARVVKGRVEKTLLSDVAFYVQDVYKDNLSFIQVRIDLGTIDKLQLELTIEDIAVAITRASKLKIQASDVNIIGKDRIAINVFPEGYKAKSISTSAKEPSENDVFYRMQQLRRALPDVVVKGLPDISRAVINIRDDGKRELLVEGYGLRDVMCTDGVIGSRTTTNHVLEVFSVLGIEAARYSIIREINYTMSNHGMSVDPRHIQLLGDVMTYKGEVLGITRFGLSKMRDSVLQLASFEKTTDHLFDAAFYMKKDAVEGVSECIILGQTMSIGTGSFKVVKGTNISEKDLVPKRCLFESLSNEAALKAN

- fold decrease of RNAPIII-bound Sen1 with RNase A treatment against no treatment: 2 fold
Substance: Sen1 (untagged, in cells expressing Rpc160-HTP, SEN1 background) (from UniProt Q00416 1-2231) (natural protein)
